{"source": "patent US20260034244A1", "biological_target": "VEGFR-2", "data": [{"substance": "VEGF-A (from UniProt P15692 27-191) (ligand)", "values": [{"measurement": "EC50 (read off the curve)", "value": 5, "unit": "ng/mL"}]}]}
